According to publication PMC9949255:

What was measured:
[1] = biological target: recombinant HIV-1 gp120 ZM109 (HIV-1 strain ZM109); assay: BLI; Octet Red96; recombinant gp120 coupled to AR2G biosensors, dipped into titrated SLBR-N; PBS with 0.1% BSA and 0.02% Tween 20; 1:1 global fit
[2] = biological target: recombinant HIV-1 gp120 ZM109 (HIV-1 strain ZM109); assay: BLI; Octet Red96; anti-Env mAb 2219 (5 μg/mL) on AHC biosensors, then recombinant gp120 ZM109 (5 μg/mL), dipped into titrated FimH; PBS with 0.1% BSA and 0.02% Tween 20; 1:1 global fit

Substance: Streptococcal Siglec-like lectin SLBR-N, GST-tagged (domain or fragment)
- Kd [1]: 40.3 nM

Substance: recombinant FimH protein (lectin domain only) (from UniProt P08191 22-179) (domain or fragment)
- Kd [2]: 360 nM
